Test results published in patent US20190010205A1 (JCR PHARMACEUTICALS, published 2019).

T1: human prolactin receptor (hPRLR) expressed on mouse BaF3 cells (BaF3/hPRLR cells) (human, UniProt P16471 25-622)
T1 sequence (looked up): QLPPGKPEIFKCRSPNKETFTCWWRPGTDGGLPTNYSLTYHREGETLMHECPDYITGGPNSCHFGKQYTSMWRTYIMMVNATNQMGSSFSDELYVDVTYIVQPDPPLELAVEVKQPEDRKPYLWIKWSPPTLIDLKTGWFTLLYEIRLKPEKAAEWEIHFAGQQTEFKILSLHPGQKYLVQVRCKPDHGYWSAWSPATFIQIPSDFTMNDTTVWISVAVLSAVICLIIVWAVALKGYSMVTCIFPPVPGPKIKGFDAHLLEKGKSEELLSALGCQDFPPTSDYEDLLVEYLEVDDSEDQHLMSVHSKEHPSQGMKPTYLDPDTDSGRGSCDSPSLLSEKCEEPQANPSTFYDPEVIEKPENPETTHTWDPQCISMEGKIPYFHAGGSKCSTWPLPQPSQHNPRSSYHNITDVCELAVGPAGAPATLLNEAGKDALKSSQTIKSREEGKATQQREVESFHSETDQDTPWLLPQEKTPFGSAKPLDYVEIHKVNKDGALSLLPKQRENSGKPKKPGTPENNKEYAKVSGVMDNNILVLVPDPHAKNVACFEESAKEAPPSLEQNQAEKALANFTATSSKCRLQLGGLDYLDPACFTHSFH

T2: human GH receptor (hGHR) expressed on mouse BaF3 cells (BaF3/hGHR cells) (human, UniProt P10912 19-638)
T2 sequence (looked up): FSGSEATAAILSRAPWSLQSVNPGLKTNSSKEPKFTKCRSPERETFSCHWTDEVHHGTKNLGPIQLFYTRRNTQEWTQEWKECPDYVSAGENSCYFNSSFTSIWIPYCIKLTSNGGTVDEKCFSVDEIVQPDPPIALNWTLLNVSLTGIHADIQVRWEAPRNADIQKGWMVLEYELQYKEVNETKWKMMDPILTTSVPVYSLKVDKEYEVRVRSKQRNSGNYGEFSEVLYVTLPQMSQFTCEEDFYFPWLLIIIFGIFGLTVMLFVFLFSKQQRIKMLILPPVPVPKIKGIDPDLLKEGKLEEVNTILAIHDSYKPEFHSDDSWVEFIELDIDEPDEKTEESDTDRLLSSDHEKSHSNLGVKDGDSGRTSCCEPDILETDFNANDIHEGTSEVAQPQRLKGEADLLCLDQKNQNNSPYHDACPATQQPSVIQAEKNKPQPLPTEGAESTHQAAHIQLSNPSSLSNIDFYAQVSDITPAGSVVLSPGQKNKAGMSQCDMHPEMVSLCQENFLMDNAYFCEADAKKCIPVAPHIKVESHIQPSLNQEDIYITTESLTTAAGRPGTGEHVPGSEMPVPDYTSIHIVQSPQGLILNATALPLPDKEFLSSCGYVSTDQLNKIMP


Tests used:
Test in all cases: cell-based or functional assay
HSA-20K hGH = HSA-20K hGH (human)
HSA-[linker]-20K hGH = HSA-[linker]-20K hGH (human)
[1] = biological target: T1, human prolactin receptor (hPRLR) …
[2] = biological target: T2, human GH receptor (hGHR) expressed on …

IC50 of hGHBP against cell growth activity on BaF3/hGHR cells (by extrapolation) (HSA-20K hGH) [nM] | IC50 of hGHBP against cell growth activity on BaF3/hGHR cells (by extrapolation) (HSA-[linker]-20K hGH) [nM] | EC50 (row printed as ED50), prolactin-like activity using BaF3/hPRLR cells [1] [nM] | EC50 (row printed as ED50), cell growth activity using BaF3/hGHR cells [2] [nM] | Binder
250 to 350 | 250 to 350 |  |  | recombinant human growth hormone binding protein (rhGHBP, BioVision Inc.) (receptor, UniProt P10912 19-264, looked up) FSGSEATAAILSRAPWSLQSVNPGLKTNSSKEPKFTKCRSPERETFSCHWTDEVHHGTKNLGPIQLFYTRRNTQEWTQEWKECPDYVSAGENSCYFNSSFTSIWIPYCIKLTSNGGTVDEKCFSVDEIVQPDPPIALNWTLLNVSLTGIHADIQVRWEAPRNADIQKGWMVLEYELQYKEVNETKWKMMDPILTTSVPVYSLKVDKEYEVRVRSKQRNSGNYGEFSEVLYVTLPQMSQFTCEEDFY
 |  | 0.27 | 0.00084 | 20K human growth hormone (ATGen Inc.) (ligand) FPTIPLSRLFDNAMLRAHRLHQLAFDTYQEFNPQTSLCFSESIPTPSNREETQQKSNLELLRISLLLIQSWLEPVQFLRSVFANSLVYGASDSNVYDLLKDLEEGIQTLMGRLEDGSPRTGQIFKQTYSKFDTNSHNDDALLKNYGLLYCFRKDMDKVETFLRIVQCRSVEGSCGF
